# Test results reported in paper PMC11647477, “Biochemical and genomic evidence for converging metabolic routes of metformin and biguanide breakdown in environmental Pseudomonads” (The Journal of Biological Chemistry, 2024).
# Substrate: N=C(N)NC(=N)N
# Assay: purified protein
# Format: biochemical, Pseudomonas sp. KHPS1
# Conditions: 100 mM potassium phosphate, pH 8.0, 25 °C, 0.5 mM NADH, 0.5 mM 2-oxoglutarate, 1.5 U GDH
protein,measurement,value
"BguH (Pseudomonas sp. KHPS1) (protein, N-terminal His6 tag (pET28b), E. coli codon-optimised synthetic gene, E. coli BL21(DE3)-RIPL host) MSERNHEKGMLLAIEQALKAVASGEPPFGVVILDAQGELVAATHDEVNTRGDMSAHAETLAVRAACQVRGPSLEGCFLYTTCEPCPMCFTTAWLARIGGVVYATTMDEVHKILGDAQRELRVPVTQMNDLSGEPVTLVKGVLRDRCLQLFREHAATLATTK",Km,620 ± 160 µM
same,kcat,8.1 ± 0.8 s⁻¹
